Test results: IntAct's records for PubMed 12084833

B1: Regulatory protein NPR1 (Arabidopsis thaliana (Mouse-ear cress)), P93002 (parent)
chain: MDTTIDGFADSYEISSTSFVATDNTDSSIVYLAAEQVLTGPDVSALQLLSNSFESVFDSPDDFYSDAKLVLSDGREVSFHRCVLSARSSFFKSALAAAKKEKDSNNTAAVKLELKEIAKDYEVGFDSVVTVLAYVYSSRVRPPPKGVSECADENCCHVACRPAVDFMLEVLYLAFIFKIPELITLYQRHLLDVVDKVVIEDTLVILKLANICGKACMKLLDRCKEIIVKSNVDMVSLEKSLPEELVKEIIDRRKELGLEVPKVKKHVSNVHKALDSDDIELVKLLLKEDHTNLDDACALHFAVAYCNVKTATDLLKLDLADVNHRNPRGYTVLHVAAMRKEPQLILSLLEKGASASEATLEGRTALMIAKQATMAVECNNIPEQCKHSLKGRLCVEILEQEDKREQIPRDVPPSFAVAADELKMTLLDLENRVALAQRLFPTEAQAAMEIAEMKGTCEFIVTSLEPDRLTGTKRTSPGVKIAPFRILEEHQSRLKALSKTVELGKRFFPRCSAVLDQIMNCEDLTQLACGEDDTAEKRLQKKQRYMEIQETLKKAFSEDNLELGNSSLTDSTSSTSKSTGGKRSNRKLSHRRR
partner: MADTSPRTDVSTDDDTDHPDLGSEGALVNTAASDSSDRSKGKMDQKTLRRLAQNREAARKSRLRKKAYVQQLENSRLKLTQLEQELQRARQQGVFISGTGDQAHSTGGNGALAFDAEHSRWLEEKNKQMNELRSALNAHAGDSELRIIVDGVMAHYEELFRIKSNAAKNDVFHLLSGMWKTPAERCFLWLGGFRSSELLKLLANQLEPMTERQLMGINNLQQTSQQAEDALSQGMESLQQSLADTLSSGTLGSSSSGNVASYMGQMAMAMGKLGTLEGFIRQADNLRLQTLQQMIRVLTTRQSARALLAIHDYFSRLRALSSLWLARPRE

Variants of: B1
Details: with tga2_arath TGA2, P43273

Row | Variant | effect of a mutation on the interaction
1 | C150Y | disrupting interaction
